We go through two molecules from patent publication US5128450A, “Nonglycosylated human interleukin-3 analog proteins” (priority 1989, dated 1992).

The test system of data set [1] is rhesus monkeys. The conditions noted are these: cited from earlier work.
For data set [2], the system named is human bone marrow cells. As to the kind of experiment: Human bone marrow proliferation assay. Type of data set: cell-based. On the procedure:
Freshly isolated human bone marrow cells are preincubated for 2 hours at 37° C., 5% CO2, in tissue culture flasks containing 2×10^6 cells per mi prewarmed, pregassed serum-free RPMI1640 medium (Gibco, Chagrin Falls, OH, USA) containing 50 units/ml penicillin, 50 μg/ml streptomycin, and 300 μg/ml fresh L-glutamine (hereinafter "assay medium"). After preincubation, nonadherent cells are removed by pipetting the media gently over the surface of the flask. Nonadherent cells are collected by centrifugation at 1000 rpm for 10 minutes at 4° C., resuspended in a small volume of assay medium containing 10% fetal bovine serum (FBS), and counted using Trypan blue for viability and Turks stain for recovery of white cells. Cells are kept at about 4° C. in assay medium containing 10% FBS until added to assay plates.
50 μl assay medium are added to each well of a 96 well flat bottom tissue culture plate. 50 μl of sample diluted in assay medium are added to the first well of each row, and serial dilutions are made across each row in the usual manner. […] After incubation, cells are harvested onto glass fiber filters, washed, and tested for incorporated radioactivity using a scintillation counter. Units of huIL-3 activity are calculated by reference to the quantity of huIL-3 which induces 50% of maximal thymidine incorporation. […]

B1: huIL-3 (Ser^8): composition of huIL-3 (Ser^8) produced in E. coli, reported by Valent et al. (protein, UniProt P08700 20-152, looked up, variant P8S)
Interleukin-3: APMTQTTSLKTSWVNCSNMIDEIITHLKQPPLPLLDFNNLNGEDQDILMENNLRRPNLEAFNRAVKSLQNASAIESILKNLLPCLPLATAAPTRHPIHIKDGDWNEFRRKLTFYLKTLENAQAQQTTLSLAIF
B1: the “intracellular histamine (IH) in WBC” value in data set [1] (after IL-3 treatment until day 8-10) is “rise continuously”. Further, the “white blood cell (WBC) increase” value in data set [1] (by day 14, 11, 33, 100 μg/kg/day s.c. thrice daily) is 2-3 fold. In data set [1] (rhesus monkey, in vivo), the plasma histamine entry was “rise in plasma histamine values”; the “skin side effects (skin biopsy)” value is “urticaria-like exanthem revealing infiltration of mast cells and lymphocytes into the dermis”.

B2: Met^3 rhuIL-3 (Pro^8 Asp^15 Asp^70): truncated, non-glycosylated IL-3 analog having an N-terminus at Met^3, expressed from pIXY290 (protein, UniProt P08700 20-152, looked up, variant del1-2 N15D N70D)
Interleukin-3: MTQTTPLKTSWVDCSNMIDEIITHLKQPPLPLLDFNNLNGEDQDILMENNLRRPNLEAFNRAVKSLQDASAIESILKNLLPCLPLATAAPTRHPIHIKDGDWNEFRRKLTFYLKTLENAQAQQTTLSLAIF
As for B2, the “biological activity compared with production lots of Example 2” value in data set [2] is “comparable in biological activity to the rhuIL-3 production lots”.
